{"source": "patent US20200289575A1", "about": "(NSAGE, published 2020)", "binders": {"B1": {"name": "sRAGE (soluble Receptor for Advanced Glycation End-products), cat. RD172116100, Biovendor (receptor)", "chain": "MRGSHHHHHHGMASAQNITARIGEPLVLKCKGAPKKPPQRLEWKLNTGRTEAWKVLSPQGGGPWDSVARVLPNGSLFLPAVGIQDEGIFRCQAMNRNGKETKSNYRVRVYQIPGKPEIVDSASELTAGVPNKVGTCVSEGSYPAGTLSWHLDGKPLVPNEKGVSVKEQTRRHPETGLFTLQSELMVTPARGGDPRPTFSCSFSPGLPRHRALRTAPIQPRVWEPVPLEEVQLVVEPEGGAVAPGGTVTLTCEVPAQPSPQIHWMKDGVPLPLPPSPVLILPEIGPQDQGTYSCVATHSSHGPQESRAVSISIIEPGEEGPTAGEGFDKVREAEDSPQHM"}}, "target": "AGE-albumin (advanced glycation end-product albumin), Sigma-Aldrich", "assay": "cell-based or functional assay", "data": [{"binder": "B1", "values": [{"measurement": "cell viability of HT22 cells by MTT assay (percent relative to control)", "value": 101, "unit": "%"}]}]}
